Assay results from patent US20140286859A1.

Key:
[1] = molecular target: prostate specific membrane antigen (PSMA), full-length human (human) (UniProt Q04609); test: cell-based or functional assay
[2] = molecular target: prostate specific membrane antigen (PSMA), full-length human (human) (UniProt Q04609); test: fraction of radiolabeled mAb bound to excess cells, average of runs
[3] = molecular target: prostate specific membrane antigen (PSMA), full-length human (human) (UniProt Q04609); test: fraction of radiolabeled mAb bound to excess cells, PSMA-3T3 (bracket: 3T3 control)
[4] = molecular target: prostate specific membrane antigen (PSMA), full-length human (human) (UniProt Q04609); test: fraction of radiolabeled mAb bound to excess cells, PSMA-3T3

Chain of prostate specific membrane antigen (PSMA), full-length human (human) (Q04609 whole entry): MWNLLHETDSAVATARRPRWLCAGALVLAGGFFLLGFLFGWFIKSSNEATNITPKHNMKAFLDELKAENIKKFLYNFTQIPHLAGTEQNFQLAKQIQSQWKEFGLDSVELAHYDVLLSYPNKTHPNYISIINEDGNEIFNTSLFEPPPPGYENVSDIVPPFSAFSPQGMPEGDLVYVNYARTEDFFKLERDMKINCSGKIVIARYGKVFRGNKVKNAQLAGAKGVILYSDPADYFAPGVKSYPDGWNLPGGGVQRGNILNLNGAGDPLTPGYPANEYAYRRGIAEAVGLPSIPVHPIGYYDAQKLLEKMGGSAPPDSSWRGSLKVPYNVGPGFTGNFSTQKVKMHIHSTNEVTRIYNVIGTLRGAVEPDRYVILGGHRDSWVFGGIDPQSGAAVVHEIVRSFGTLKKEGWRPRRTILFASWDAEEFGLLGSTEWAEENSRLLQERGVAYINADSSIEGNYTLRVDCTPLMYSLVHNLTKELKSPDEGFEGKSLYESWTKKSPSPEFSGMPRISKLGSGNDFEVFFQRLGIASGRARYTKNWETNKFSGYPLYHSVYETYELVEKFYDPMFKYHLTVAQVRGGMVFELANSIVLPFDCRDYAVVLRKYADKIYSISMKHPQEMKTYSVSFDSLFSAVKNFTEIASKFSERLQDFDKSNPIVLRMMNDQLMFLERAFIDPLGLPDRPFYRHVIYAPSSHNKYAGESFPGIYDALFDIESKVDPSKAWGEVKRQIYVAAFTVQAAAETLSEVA

Row | Immunoreactivity (%), average [2] [%] | Immunoreactivity (%) [3] [%] | Immunoreactivity (%) [4] [%] | Substance | immunotoxin cytotoxicity (saporin-linked secondary antibody) on C4-2 cells, LD50 [1] [pM] | immunotoxin cytotoxicity (saporin-linked secondary antibody) on PSMA-3T3 cells, LD50 [1] [pM]
1 |  |  |  | mJ591 (antibody) | 88.2 | 89
2 | 56.7 | 54.9 | 58.5 | ^111In mJ591 (In-111 labeled CHX-A''-DTPA mJ591) (antibody) |  | 
